Experimental data taken from the nanobody polyreactivity screen of Harvey et al. (2022).

Assay: yeast display, Sf9 membrane polyspecificity reagent, FACS + sequencing; frameworks hold sequencing errors
Outline: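 A synthetic nanobody library was expressed on Saccharomyces cerevisiae BJ5465 by galactose induction for 36–48 hours. The library was stained for 1 hour at 4 °C with 10% biotinylated, detergent-solubilized Sf9 membrane reagent and enriched with streptavidin microbeads before FACS. Low and high (top ~1%) gates were set on anti-HA fluorescence for expression and streptavidin fluorescence for reagent binding, and each polyreactivity label reflects the gate of origin.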

Row | Sequence | polyreactivity (PSR sort gate)
1 | QVQLVESGGGLVQAGGSLRLSCAASGLIFDINAMGWYRQAPGKERELVAAITWRGGSTYYADSVKGRFTISRDNAKNTVYLQMNSLKPEDTAVYYCAAGWSYRNGVGVGDFYYGYDYWGQGTQVTVSS | high polyreactivity
2 | QVQLVDSGGGLVQAGGSLRLSCAASGSTFSRYAMGWYRQARGKERELVAAITDGGDSTYYADSVKGRFTISRDNAKNTVYLQMNSLKPEDTAGYYCNADRLQYGRTPHYDYWGQGTQVTVSS | low polyreactivity
3 | QVQIVESGGGLVQAGGSLRLSCAASGRIFRNTMGWYIQAPGKERDLVAAITDTTDSTYYADSVKGRFTISRDNAKNTVYLQMNSLKPEDSAVYYCAARYGGYVNRPYYYWGHGTQVTVSS | low polyreactivity
4 | QVQLVESGGGLDQAGGSLRLSCAASGRIFSPNAMGWYRQAPGKERELVAAISRIGGRTYYADSVKGRFTISRDNAKNTVYLQMNSLKPEDTGVFYCNVVATHTDFTYDFWGQGTQVTVSS | high polyreactivity
5 | QVQLVESGGGLVQAGGSLRLSCAASGRTFDSNAMGWYRQAPGKERELVAAISSGGGSTYYADSVKGRFTISRDNAKNTVYLQMNSLKPEDTAVYYCAAVYHYYRGVNYWGQGTQVTVSS | high polyreactivity
6 | QVQLVESGGGLVQAGGSLRLSCAASGYTFGGYAMGWYRQAPGKERELVAAISGSGVRTYYADSVKGRFTISRDNAKNTVYLQMNSLKPEDTAVYYCAKRVRYPGDRYYYWGQGTQVTVSS | high polyreactivity
7 | QVQLVESAGGLVQAGGSLRLSCAASRSIYGYYAMGWYRQEPGKERELVAAIRRSGGSTYYADSVKGRFTISRDNAKNTVYLHMNSLKPEDTAVYYCAARVSPYRGFYYWGLGTQVTVSS | high polyreactivity
8 | QVQLVESGGGLVQAGGSLRLSCAASGITFLAYAMGWYRQAPGKERELVAGISKSGGNTYYADSVKGRFTISRDNAKNTVYLQMNSLKPEDTAVYYCAARYRLTYFDANYRYGYWGQGTQVTVSS | high polyreactivity
9 | QVQLVESGGGLVQAGGSLRLSCAASGRIFWYNAMGWYRQAPAKERELVAGITRSGGRTYYADSVKGRFTISRDNAKNTVYLQMNSLKPEDTAVYYCAAAPYARRDYEYWGQGTQVTVSS | high polyreactivity
10 | QVQLVESGGGLVQAGGSLRLSCAASGLTIWKYTMGWYRQAPGKERELVAAISISGTNTYYADSVKGRFTISRDNAKNTVYLQMNSLKPEDTAVYYCAAVRGYPPTNYYYWGQGTQVSVSS | high polyreactivity
11 | QVQLVESGGGLVQAGGSLRLSCAASGGTFYGYAMGWYRQAPGKERELVAAISYNGGNTYYADSVKGRFTISRDNAKNTVYLQMNSLKAEDTAVYYCAAGYSYRYGYWGQGTQLTVSS | low polyreactivity
12 | QVQIVESGGGLVQAGGSLRLTCAASGSIFDVYTMGWYRQAPGKERELVAAISYSGGRTNYADSVKGRFTISRDNAKNTVYLQIYSLKPEDTAVYYCATTDGRTAWGVKDYYAKYNYWGQGTQVTVSS | low polyreactivity
13 | QVQLVESGGGLVQAGVSLRLSCAASGRTFEDKAMGSDRQAPGKERELVAAISSDGSTNYADSVKGRFTISRDNAKYTVYLQKYSLKPVDTAVYYCNSTVYWPYDWSTSDYWGQGTQVTVSS | low polyreactivity
14 | QVQLVESGGGLVQSGGSLRLSCAASGSTFKFYAMGWYRQAPGKEREFVAAITSSGDSTYYADSVKGRFTISRDNAKNTVYLQMNSLKPEDTAVYYCAARLRWRYSYDYWGQGTQVTVSS | high polyreactivity
15 | QVQLVESGGGLVQAGGSLRLSCAASVYTFYWNAMGWYRQAPGKEREFVASFSGTSTYYADSVKGRFTISRDNAKNTVYLQMNSLKPEDTAVYYCNARLTLGPRKYEYWGQGTQVTVSS | low polyreactivity
16 | QVQLVESGGGLVQAGGSLRLSCAASGSILKGYALGWYRQAPGKERELVAAITSSGGRTYYADSVKGRFTISRDNAKNTVYLQMNSLKPEDTAVYYCNALGGQWARYDYWGQGTQVTVSS | high polyreactivity
17 | QVQLVESGGGLVQAGGSLRLSWAASGITFSRNAMGWYRQAPGKESELVATITSGGSTNYADSVKGRFTISRDHAKNTVYLQMNSLKPEDTAVYYCNAVWNNFISGRSYDYWGQGTQVTVSS | low polyreactivity
18 | QVQLVESGGGLVQAGGSLRLSCAASGSTFVVNAMVWYRQAPGKERELVAAITQDGDGTYYADSVKGRFTISRDNAKNTVYLQMNSLKPEDTAVYYCAAYPFYGPYDEFDYWGQGTQVTVSS | low polyreactivity
19 | QVQLVESGGGLVQAGGSLRLSCAASGRIFGGYTMGWYRQAPGKEREFVAAITSSGGSTYYADSVKGRFTISRDNAKNTVYLQMNSLKPEDTAVYYCAVDDYYYDYDYWGQGTQVTVSS | low polyreactivity
20 | QVQLVESGGGLVQAGGSLRLSCAASGLIFLWYVMGWYRQAPGKEREFVAAISWNGGGTYYADSVKGRFTISRDNAKNTVYLQMNSLKPDDTAVYYCAAQTYSNDYWGQGTQVTVSS | low polyreactivity
21 | QVQLVESGGGLVQAGGSLRLSCAASGYIFTRNAMGWYRQAPGKDRELVAAISQGGGSTYYADSVKGRFTISRDNAKNTVYFQMNSLKPEDTAVYYCAAYFYTFVGYDYWGQGTQVTVSS | low polyreactivity
22 | QVQLVESGGGLVQAGGSLRLSCAASGFTFWYYAMGWYRQAPGKERELVADISTRGGSTYYADSVKGRFTISRDNAKNTVYLQMNSLKPEDTAVYYCAAKYARNLAGDDPYDYWGQGTQVTVSS | high polyreactivity

Row | Sequence | polyreactivity (PSR sort gate)
23 | QVQLVESGGGLVQAGGSLRLSCAASGYIFPKNAIGWYRQAPWKERELVAAITGSGGSTYYADSVKGRFTISRDNAKNTVYLQMNSLKPEDTAVYYCAKRSWIEYDYWGQGTQVTVSS | low polyreactivity
24 | QVQLLESRGGLVQAGGSLRLSCAASGSNFDVYDMGWYRQAPGKERELVACISWDGDRTYYADSVKGRFTISRDNAKNTVYLQMKSLKPEDTAVYYCAVDSASDTIYDYWGQGTQVTVSS | low polyreactivity
25 | QVQLVESGGGLDQAGGSLRLSCAASGSIFSGYAMGWYRQAPGKERELVAGISSRGGRTYYADSVKGRFTISRDNAKNTVYLQMNSLKPEDTAVYYCAARWSRSRTSDRYNYWGQGTQVTVSS | high polyreactivity
26 | QVQLVESGGGLVQAGGSLRLSCAASGRTLGRYAMGWYRQAPGKERELVAAINVGGGTTHYADSVKGRFTISRDNAKNTVYLQMNSLKPEDTAVYYCAAYRYTYGDRHAYDYWGQGTQVTVSS | low polyreactivity
27 | QVQLVESGGGLVQAGGSLRLSCAASGRIFGYNAMGWYRLAPGKERELVAAIRSGGSTNYADSVKGRFTISRDNAKNTVYLQMNSLKPEDTAVYYCAADDRWWYTPRPRYNYWGQGTQVTVSS | high polyreactivity
28 | QVQLVESGGGLVQAGGSLRLSCAASGNTFYVNVMGWYRPAPGKEREFVAAISTRGVSTSYADSVKGRFTISRDNAKNTVYFQMNSLKPEDTAVYYGAARYYYRDWVGIISTYYYWGQGTQVTVSS | high polyreactivity
29 | QVKLVESGGGLVQAGCSLRLSCAASGRIYGGYTMGRYRPAPGKERELVAAITGSGGRTYFADSVKGRFTISRDNAKNTVYLHMNILTPEDTAVYYCNTVYPYRYYWGHGTQVTVSS | high polyreactivity
30 | QVQLVESGGGLDQARGSLRLSCAASGRTFSSNAMGWYRQAPWKERELVAAISSSGAGTYYADSVKGRFTISRDNAKNTVYLQMNSLKPEDTAVYYCAARANSYHSFTSHYDYWGQGTQVTVSS | low polyreactivity
31 | QVQLVESGGGLVQAGGSLRLSCAASVITLFGYTMGWYRQAPGKERELVAAIRRRGVSTYYADSVKGRFTISRDNAKNTVYLQMNSLKPEDTAVYYCAKSLKPYTDYDYWGQGTQVTVSS | high polyreactivity
32 | QVQLVESVGGLVQAGGSLRLSCAASGSIIKVYAMGWYRQAPGKERELVAGIRGSGGRTYYADSVKGRFTISRDNAKNTVYLQMNSLKPEDTAVYYCNARNPGRLGRFDYWGQGTQVTVSS | low polyreactivity
33 | QVQLVESGGGLVQAGGSLRLSCAASGSIFHYYTMGWYRQAPGKERELVAGISRSGTSTFYADSVKGRFTISRDNAKKTVYLQMNSLKPEDTAVSYCNAYSPGSYYYWPYDYWGQGTQVTVSS | high polyreactivity
34 | QVQLVESGGGLVQAGGSLRLSCAASGRTFGSYVMGWYRQAPGKERELVAAISSRGTRTYYADSVKGRFTISRDNAKNTVYLQMNSLKPEDTAVYYCAAEWPYRFQYGEMDYWGQGTQVTVSS | high polyreactivity
35 | QVQLVESGVGLVQAGGSVRLSCAASGRTFTRYAMGWYRQAPGKEREWVAAITWSGGSTYYADSVKGRFTISRDNAKNTVYLQMNSLKPEDTAVYYCNAQRYGLFGSEHGYWGQGTQVTVSS | high polyreactivity
36 | QVQLVESGGGLVQAGGSLRLSCAASGSTFVDNAMGWYRQAPGKERELVAAITNSGSTYYADSVKGRFTISRDNAKNTVYLQMNSHKPEDTAVYYCAARSRVYWARSGYWGQGTQVTVSS | low polyreactivity
37 | QVPLEESRGGLVQAGGSLRLSCAASGTIFVAYDMGWYRQAPGKERELVAAIDSVGRTNYADSVKGRFTISRDNAKNTVYLQMNSLKPEDTAVYYCNADQYYSFYDPDDYWGQGTQVTVSS | low polyreactivity
38 | QVQLVESGGGLVQAGGSLRLSCAASGRTFRGYAMGWYRQAPGKERELVAGITQRGGTTYYADSVKGRFTISRDNAKNTVYLQMNSLKPEDSAVYYCAAAFGRVTKYGYRNQYGYWGHGTQVTVSS | high polyreactivity
39 | QVQLVESGAGLVQAGGSLRLSCAASGFTFRYYAMGWYRQAPGKERELVATISASSGSTYYADSVKGRFTISRDNAKNTVYLQMNSLKPEDTAVYYGAKEPLASGWGYDYWGQGTQVTVSS | high polyreactivity
40 | QVQLVESGGGLVQAGGSLRLSCAASGRIFGVYAKGWYRQAPGKERELVAAISEGGGSTNYADSVKGRFTISRDNAKNTVYLQMNSLKPEETSVYYCAATYLTGVRRYYSWGQGSQVTVSS | low polyreactivity
41 | QVQLVESGGGLVQAGGSLRLSCAASGRIFVFNAMGWYRQAPGKERELVATIDRGGSTNYADSVKGRFTISRDNAKNTVYLQMNSLKPEDTAVYYCAAGVVGKRSRTGYYWGQGTQVTVSS | low polyreactivity
42 | QVQLVESGGGIVQAGGSLRLSCAASGRTLPEYAMGWYIQEPGKERELVAAITSSSGSTYYADSVKVRFTISRDNAKNTVYLQMNSLIPEDTAVYYCAAESESGYHDYDYWGQGTQVTVSS | low polyreactivity
43 | QVQLVESGGGLVQAGGSLRLSCAASGRIMPFYAMGWYRQAPGKERELVATISWTSDSTYYADSVKGRFTISRDNAKNTVFLQMNSLKPEDTAVYYCAREYTYTYASTVIYDHWGQGTQVTVSS | low polyreactivity
